# ± gives the standard deviation of the averaged measurements.
# Assays:
# [1] = system: VchCAST RNA-guided transposition machinery (E. coli BL21(DE3) host, lacZ target); assay: relative integration efficiency (T-LR orientation) vs wild-type transposon end (log2 (normalized fold change)); transposon end mutated: right end (5 bp flank + 75 bp right end); higher = more efficient transposition
# In short: (§1)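 Barcode abundances in input plasmids and in genomic integration junctions were obtained by PCR amplification and Illumina sequencing. These came from E. coli BL21(DE3) co-transformed with a T7-driven effector plasmid and a pUC57 donor carrying 1549 left-end or 1849 right-end transposon variants, then plated with 0.1 mM IPTG at 37°C for 18 h. Relative integration efficiency is the output/input fold change, normalised to reference barcodes and log-transformed.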
# [2] = system: VchCAST RNA-guided transposition machinery (E. coli BL21(DE3) host, lacZ target); assay: relative integration efficiency (T-RL orientation) vs wild-type transposon end (log2 (normalized fold change)); transposon end mutated: right end (5 bp flank + 75 bp right end); higher = more efficient transposition
# In short: as §1
Sequence,relative integration efficiency (log2) [1],relative integration efficiency (log2) [2]
ACATTTGTTGATCAAACCATAAAATGATAATTACACCCATAAATTGATAATTATCACACCCATAAATTGATATTGCCTCTGATCATAGTCAGACCAACATTGCTACGACCCGTATTCGCACCGACAC,-0.874 ± 0.45,-0.137 ± 0.021
ACATTTGTTGATCAACCATAAAATGATAATTACACCCATAAATTGATAATTATCACACCCATAAATTGATATTGCCTCTGATCATAGTCAGACCAACATTGCTACGACCCGTATTCGCACCGACACT,-4.42 ± 0.092,-8.26 ± 0.75
ACATTTGTTGATCACCCCATAAAATGATAATTACACCCATAAATTGATAATTATCACACCCATAAATTGATATTGCCTCTGATCATAGTCAGACCAACATTGCTACGACCCGTATTCGCACCGACAC,-1.51 ± 0.22,-0.839 ± 0.08
ACATTTGTTGATCCAACCATAAAATGATAATTACACCCATAAATGGATAATTATCACACCCAATTTAACTATAACGCTCTGATCATAGTCAGACCAACATTGCTACGACCCGTATTCGCACCGACAC,1.15 ± 0.043,-1.51 ± 0.15
ACATTTGTTGATCCAACCATAAAATGATAATTACACCCATAAATGGATCATTATCACACCCAATTTAACTATAACGCTCTGATCATAGTCAGACCAACATTGCTACGACCCGTATTCGCACCGACAC,1.13 ± 0.26,-1.74 ± 0.32
ACATTTGTTGATCCAACCATAAAATGATAATTACACCCATAAATTCATAATTATCACACCCAATTTAACTATAACGCTCTGATCATAGTCAGACCAACATTGCTACGACCCGTATTCGCACCGACAC,0.916 ± 0.17,-2.07 ± 0.2
ACATTTGTTGATCCAACCATAAAATGATAATTACACCCATAAATTCATCATTATCACACCCAATTTAACTATAACGCTCTGATCATAGTCAGACCAACATTGCTACGACCCGTATTCGCACCGACAC,1.23 ± 0.14,-2.42 ± 0.5
ACATTTGTTGATCCAACCATAAAATGATAATTACACCCATAAATTGATCATTATCACACCCAATTTAACTATAACGCTCTGATCATAGTCAGACCAACATTGCTACGACCCGTATTCGCACCGACAC,1.98 ± 0.02,-1.7 ± 0.3
ACATTTGTTGATTGAACCATAAAATGATAATTACACCCATAAATTGATAATTATCACACCCATAAATTGATATTGCCTCTGATCATAGTCAGACCAACATTGCTACGACCCGTATTCGCACCGACAC,-1.4 ± 0.71,-0.172 ± 0.032
ACATTTGTTGATTGTTCCATAAAATGATAATTACACCCATAAATTGATAATTATCACACCCATAAATTGATATTGCCTCTGATCATAGTCAGACCAACATTGCTACGACCCGTATTCGCACCGACAC,-1.3 ± 0.53,-1.3 ± 0.19
ACATTTGTTGCGACAACCATAAAATGATAATTACACCCATAAATTGATAATTATCACACCCATAAATTGATATTGCCTCTGATCATAGTCAGACCAACATTGCTACGACCCGTATTCGCACCGACAC,-1.69 ± 0.07,-0.447 ± 0.038
ACATTTGTTGCGCAAACCATAAAATGATAATTACACCCATAAATTGATAATTATCACACCCATAAATTGATATTGCCTCTGATCATAGTCAGACCAACATTGCTACGACCCGTATTCGCACCGACAC,-2.91 ± 0.35,-0.839 ± 0.087
ACATTTGTTGTAACAACCATAAAATGATAATTACACCCATAAATTGATAATTATCACACCCATAAATTGATATTGCCTCTGATCATAGTCAGACCAACATTGCTACGACCCGTATTCGCACCGACAC,-1.09 ± 0.54,-0.2 ± 0.038
ACATTTGTTGTATGAACCATAAAATGATAATTACACCCATAAATTGATAATTATCACACCCATAAATTGATATTGCCTCTGATCATAGTCAGACCAACATTGCTACGACCCGTATTCGCACCGACAC,-2.29 ± 0.23,-0.782 ± 0.022
ACATTTGTTTATACAACCATAAAATGATAATTACACCCATAAATGGATAATTATCACACCCAATTTAACTATAACGCTCTGATCATAGTCAGACCAACATTGCTACGACCCGTATTCGCACCGACAC,-0.232 ± 0.5,-1.86 ± 0.27
ACATTTGTTTATACAACCATAAAATGATAATTACACCCATAAATGGATTATTATCACACCCAATTTAACTATAACGCTCTGATCATAGTCAGACCAACATTGCTACGACCCGTATTCGCACCGACAC,-1.01 ± 0.12,-2.39 ± 0.61
ACATTTGTTTATACAACCATAAAATGATAATTACACCCATAAATTCATAATTATCACACCCAATTTAACTATAACGCTCTGATCATAGTCAGACCAACATTGCTACGACCCGTATTCGCACCGACAC,-0.939 ± 0.036,-2.45 ± 0.3
ACATTTGTTTATACAACCATAAAATGATAATTACACCCATAAATTCATTATTATCACACCCAATTTAACTATAACGCTCTGATCATAGTCAGACCAACATTGCTACGACCCGTATTCGCACCGACAC,-0.961 ± 0.16,-3.21 ± 0.16
ACATTTGTTTATACAACCATAAAATGATAATTACACCCATAAATTTATAATTATCACACCCAATTTAACTATAACGCTCTGATCATAGTCAGACCAACATTGCTACGACCCGTATTCGCACCGACAC,0.00132 ± 0.14,-1.89 ± 0.13
ACATTTGTTTATACAACCATAAAATGATAATTACACCCATAAATTTATTATTATCACACCCAATTTAACTATAACGCTCTGATCATAGTCAGACCAACATTGCTACGACCCGTATTCGCACCGACAC,-0.334 ± 0.058,-2.66 ± 0.6
ACATTTGTTTCGCCAACCATAAAATGATAATTACACCCATAAATTGATAATTATCACACCCATAAATTGATATTGCCTCTGATCATAGTCAGACCAACATTGCTACGACCCGTATTCGCACCGACAC,-3.75 ± 0.98,-1.72 ± 0.26
ACATTTGTTTCTACAACCATAAAATGATAATTACACCCATAAATTGATAATTATCACACCCATAAATTGATATTGCCTCTGATCATAGTCAGACCAACATTGCTACGACCCGTATTCGCACCGACAC,-3.43 ± 0.18,-1.06 ± 0.14
ACATTTTGGTATACAACCATAAAATGATAATTACACCCATAAATTGATAATTATCACACCCATAAATTGATATTGCCTCTGATCATAGTCAGACCAACATTGCTACGACCCGTATTCGCACCGACAC,-6.61 ± 2.1,-5.963 ± 0.038
ACATTTTGTGATACAACCATAAAATGATAATTACACCCATAAATTGATAATTATCACACCCATAAATTGATATTGCCTCTGATCATAGTCAGACCAACATTGCTACGACCCGTATTCGCACCGACAC,< -10,-6.54 ± 0.24
ACCGGGGTTGATACAACCATAAAATGATAATTACACCCATAAATTGATAATTATCACACCCATAAATTGATATTGCCTCTGATCATAGTCAGACCAACATTGCTACGACCCGTATTCGCACCGACAC,-5.64 ± 0.3,-6.81 ± 0.49
ACCGTTGTTGATACAACCATAAAATGATAATTACACCCATAAATTGATAATTATCACACCCATAAATTGATATTGCCTCTGATCATAGTCAGACCAACATTGCTACGACCCGTATTCGCACCGACAC,0.612 ± 0.13,-0.00193 ± 0.024
ACTAAAGTTGATACAACCATAAAATGATAATTACACCCATAAATTGATAATTATCACACCCATAAATTGATATTGCCTCTGATCATAGTCAGACCAACATTGCTACGACCCGTATTCGCACCGACAC,-4.99 ± 1.1,-6.65 ± 0.58

# Source: the supplement of paper PMC10201428
